For data set [1], the target named is T1, Ku70;Ku80 (human;human, UniProt P12956;P13010 1-609;1-732, |). As to the kind of experiment: mwPIFE; mwPIFE, room temp, 30 min: BamHI 10 mM Tris-HCl pH 8, 100 mM KCl, 0.02% Triton X-100, 0.1 mg/ml BSA, 5 mM EDTA/MgCl2/CaCl2; Ku 35 mM Tris-Cl pH 7.9, 5.5% glycerol, 150 mM KCl, 1 mM EDTA, 0.1 mM DTT, 1.5 mM imidazole; XPF/ERCC1 10 mM Tris-Cl pH 8, 10 mM NaCl. FA: 10 mM Tris-HCl pH 8, 10 mM NaCl, 10% glycerol, 1 mM TCEP, 50 nM DNA, 25 C. As to conditions: protein: recombinant;recombinant, tags: ;, copies: 1;1, label: 5' biotin strand 1, blunt.
T1 sequence (P12956 whole entry, chain 1 of 2): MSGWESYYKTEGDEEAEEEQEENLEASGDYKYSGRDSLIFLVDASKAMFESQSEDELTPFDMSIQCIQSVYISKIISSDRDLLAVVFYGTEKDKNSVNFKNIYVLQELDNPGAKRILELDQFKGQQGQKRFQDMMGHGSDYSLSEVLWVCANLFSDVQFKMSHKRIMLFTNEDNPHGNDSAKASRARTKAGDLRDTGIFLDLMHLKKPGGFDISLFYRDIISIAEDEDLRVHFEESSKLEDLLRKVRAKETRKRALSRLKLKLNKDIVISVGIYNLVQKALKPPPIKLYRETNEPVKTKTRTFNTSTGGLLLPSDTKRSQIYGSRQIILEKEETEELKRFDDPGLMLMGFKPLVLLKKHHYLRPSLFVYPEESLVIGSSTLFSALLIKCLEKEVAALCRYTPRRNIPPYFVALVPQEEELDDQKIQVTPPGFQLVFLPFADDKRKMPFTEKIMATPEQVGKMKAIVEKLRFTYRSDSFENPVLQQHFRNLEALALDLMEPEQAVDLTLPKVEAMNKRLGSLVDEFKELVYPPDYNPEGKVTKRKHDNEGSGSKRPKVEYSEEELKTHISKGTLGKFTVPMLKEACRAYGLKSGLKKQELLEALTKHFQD
T1 sequence (P13010 whole entry, chain 2 of 2): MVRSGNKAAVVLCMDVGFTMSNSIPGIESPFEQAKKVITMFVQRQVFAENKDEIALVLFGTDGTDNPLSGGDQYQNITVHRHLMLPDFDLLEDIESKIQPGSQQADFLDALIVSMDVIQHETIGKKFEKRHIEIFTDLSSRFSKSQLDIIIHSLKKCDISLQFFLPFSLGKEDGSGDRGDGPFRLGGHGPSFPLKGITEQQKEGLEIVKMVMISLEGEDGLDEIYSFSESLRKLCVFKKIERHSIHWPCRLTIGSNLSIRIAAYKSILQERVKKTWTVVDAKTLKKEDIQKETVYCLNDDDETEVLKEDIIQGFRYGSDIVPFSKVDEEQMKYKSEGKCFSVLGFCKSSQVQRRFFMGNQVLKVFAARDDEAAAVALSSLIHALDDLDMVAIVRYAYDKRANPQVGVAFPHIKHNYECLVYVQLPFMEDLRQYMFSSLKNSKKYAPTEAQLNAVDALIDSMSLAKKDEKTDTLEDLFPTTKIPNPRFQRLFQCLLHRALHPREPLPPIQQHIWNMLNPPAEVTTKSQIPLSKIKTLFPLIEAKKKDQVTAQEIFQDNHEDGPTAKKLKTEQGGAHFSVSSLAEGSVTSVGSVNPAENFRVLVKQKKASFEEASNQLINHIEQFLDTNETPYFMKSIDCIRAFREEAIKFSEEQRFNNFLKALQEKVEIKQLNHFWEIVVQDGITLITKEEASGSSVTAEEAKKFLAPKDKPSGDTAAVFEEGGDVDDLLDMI

Data set [2] addresses T1, Ku70;Ku80. Kind of data set: mwPIFE; internal Cy3, lower PIFE than terminal; mwPIFE, room temp, 30 min: BamHI 10 mM Tris-HCl pH 8, 100 mM KCl, 0.02% Triton X-100, 0.1 mg/ml BSA, 5 mM EDTA/MgCl2/CaCl2; Ku 35 mM Tris-Cl pH 7.9, 5.5% glycerol, 150 mM KCl, 1 mM EDTA, 0.1 mM DTT, 1.5 mM imidazole; XPF/ERCC1 10 mM Tris-Cl pH 8, 10 mM NaCl. FA: 10 mM Tris-HCl pH 8, 10 mM NaCl, 10% glycerol, 1 mM TCEP, 50 nM DNA, 25 C. To be noted: protein: recombinant;recombinant; tags: ;; copies: 1;1; label: 5' biotin-TEG strand 1; 3' biotin-TEG strand 2; iCy3; blunt; one end free.

Data set [3] concerns the target T2, XPF (truncated);ERCC1 (truncated) (human;human, UniProt Q92889;P07992 640-916;93-297, |).
T2 sequence 1: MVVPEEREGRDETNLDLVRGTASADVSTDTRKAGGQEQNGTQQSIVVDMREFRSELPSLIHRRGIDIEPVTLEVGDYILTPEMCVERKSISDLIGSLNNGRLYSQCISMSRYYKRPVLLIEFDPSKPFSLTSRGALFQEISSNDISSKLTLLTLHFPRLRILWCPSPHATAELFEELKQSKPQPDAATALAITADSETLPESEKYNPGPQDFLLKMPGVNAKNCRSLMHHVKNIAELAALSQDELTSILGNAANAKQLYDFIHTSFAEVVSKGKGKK
T2 sequence 2: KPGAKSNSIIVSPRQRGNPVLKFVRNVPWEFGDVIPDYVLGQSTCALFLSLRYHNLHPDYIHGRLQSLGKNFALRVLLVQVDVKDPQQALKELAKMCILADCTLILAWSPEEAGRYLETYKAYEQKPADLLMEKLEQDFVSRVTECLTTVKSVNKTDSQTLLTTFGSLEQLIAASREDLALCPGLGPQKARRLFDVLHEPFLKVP
As to the kind of experiment: fluorescence anisotropy; mwPIFE, room temp, 30 min: BamHI 10 mM Tris-HCl pH 8, 100 mM KCl, 0.02% Triton X-100, 0.1 mg/ml BSA, 5 mM EDTA/MgCl2/CaCl2; Ku 35 mM Tris-Cl pH 7.9, 5.5% glycerol, 150 mM KCl, 1 mM EDTA, 0.1 mM DTT, 1.5 mM imidazole; XPF/ERCC1 10 mM Tris-Cl pH 8, 10 mM NaCl. FA: 10 mM Tris-HCl pH 8, 10 mM NaCl, 10% glycerol, 1 mM TCEP, 50 nM DNA, 25 C. As to conditions: protein: recombinant;recombinant, tags: none;GST-His6 N-terminal, removed by TEV, copies: 1;1.

Data set [4] deals with T1, Ku70;Ku80. As to the kind of experiment: mwPIFE; mwPIFE, room temp, 30 min: BamHI 10 mM Tris-HCl pH 8, 100 mM KCl, 0.02% Triton X-100, 0.1 mg/ml BSA, 5 mM EDTA/MgCl2/CaCl2; Ku 35 mM Tris-Cl pH 7.9, 5.5% glycerol, 150 mM KCl, 1 mM EDTA, 0.1 mM DTT, 1.5 mM imidazole; XPF/ERCC1 10 mM Tris-Cl pH 8, 10 mM NaCl. FA: 10 mM Tris-HCl pH 8, 10 mM NaCl, 10% glycerol, 1 mM TCEP, 50 nM DNA, 25 C. To be noted: protein: recombinant;recombinant; tags: ;; copies: 1;1; label: 5' biotin strand 1; 5' Cy3 strand 2; blunt.

Data set [5] addresses T3, BamHI restriction endonuclease (UniProt P23940 1-213).
T3 sequence: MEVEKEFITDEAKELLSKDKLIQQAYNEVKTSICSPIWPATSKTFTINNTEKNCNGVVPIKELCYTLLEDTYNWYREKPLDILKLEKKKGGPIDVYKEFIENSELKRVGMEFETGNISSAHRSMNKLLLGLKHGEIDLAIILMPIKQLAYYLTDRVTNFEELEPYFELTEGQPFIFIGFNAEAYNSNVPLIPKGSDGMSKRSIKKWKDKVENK
As to the kind of experiment: mwPIFE; 5 mM Ca2+; mwPIFE, room temp, 30 min: BamHI 10 mM Tris-HCl pH 8, 100 mM KCl, 0.02% Triton X-100, 0.1 mg/ml BSA, 5 mM EDTA/MgCl2/CaCl2; Ku 35 mM Tris-Cl pH 7.9, 5.5% glycerol, 150 mM KCl, 1 mM EDTA, 0.1 mM DTT, 1.5 mM imidazole; XPF/ERCC1 10 mM Tris-Cl pH 8, 10 mM NaCl. FA: 10 mM Tris-HCl pH 8, 10 mM NaCl, 10% glycerol, 1 mM TCEP, 50 nM DNA, 25 C. As to conditions: protein: commercial; chain copies: 2; label: 5' biotin strand 1; 5' Cy3 strand 2; blunt.

For data set [6], the target named is T3, BamHI restriction endonuclease. As to the kind of experiment: competition; Ca2+; mwPIFE, 1-10x excess; mwPIFE, room temp, 30 min: BamHI 10 mM Tris-HCl pH 8, 100 mM KCl, 0.02% Triton X-100, 0.1 mg/ml BSA, 5 mM EDTA/MgCl2/CaCl2; Ku 35 mM Tris-Cl pH 7.9, 5.5% glycerol, 150 mM KCl, 1 mM EDTA, 0.1 mM DTT, 1.5 mM imidazole; XPF/ERCC1 10 mM Tris-Cl pH 8, 10 mM NaCl. FA: 10 mM Tris-HCl pH 8, 10 mM NaCl, 10% glycerol, 1 mM TCEP, 50 nM DNA, 25 C. As to conditions: protein: commercial; chain copies: 2; blunt.

Data set [7] concerns the target T1, Ku70;Ku80. Kind of data set: mwPIFE; internal Cy3, PIFE falls with distance from free end; mwPIFE, room temp, 30 min: BamHI 10 mM Tris-HCl pH 8, 100 mM KCl, 0.02% Triton X-100, 0.1 mg/ml BSA, 5 mM EDTA/MgCl2/CaCl2; Ku 35 mM Tris-Cl pH 7.9, 5.5% glycerol, 150 mM KCl, 1 mM EDTA, 0.1 mM DTT, 1.5 mM imidazole; XPF/ERCC1 10 mM Tris-Cl pH 8, 10 mM NaCl. FA: 10 mM Tris-HCl pH 8, 10 mM NaCl, 10% glycerol, 1 mM TCEP, 50 nM DNA, 25 C. To be noted: protein: recombinant;recombinant; tags: ;; copies: 1;1; label: 5' biotin-TEG strand 1; 3' biotin-TEG strand 2; iCy3; blunt; one end free.

B1: Btn_14_f/Cy3_14_r (dsDNA)
DNA 1: CCTAGATAGAGCCA
DNA 2: TGGCTCTATCTAGG
On to B1, for which the binding signal in data set [1] was roughly 50 % PIFE.

B2: BtnT_15_Cy3_15 (internal Cy3 15 nt from free end) (dsDNA)
DNA 1: TTGCATCCTTCACAACGACCACCTAGATAG
DNA 2: CTATCTAGGTGGTCGTTGTGAAGGATGCAA
modifications: internal Cy3 after nt 15 of strand 1
In the case of B2, in data set [2], the binding result is “binds”.

B3: Btn_12_f/Cy3_12_r (dsDNA)
DNA 1: TAGATAGAGCCA
DNA 2: TGGCTCTATCTA
Regarding B3, the binding signal in data set [1] came out at 20 % PIFE.

B4: 10ds (dsDNA)
DNA 1: CAGCGCTCGG
DNA 2: CCGAGCGCT
One may read the Kd as the equilibrium constant for the complex coming apart. As for B4, the dissociation constant (Kd) in data set [3] (5' overhang 1 nt on strand 1 as printed (meant blunt)) was 4750 ± 800 nM.

B5: Y (splayed arm) (structured_DNA)
DNA 1: CAGCGCTCGGTTTTTTTTTT
DNA 2: TTTTTTTTTTCCGAGCGCTG
Regarding B5, the Kd in data set [3] (fork 1:2, 10 bp duplex with two T10 arms) worked out at 810 ± 100 nM.

B6: Btn_15_f/Cy3_15_r (dsDNA)
DNA 1: ACCTAGATAGAGCCA
DNA 2: TGGCTCTATCTAGGT
With B6, the Kd in data set [4] was found to be 10 ± 5 nM. Further, the binding signal in data set [1] (5' Cy3 strand 2) is roughly 50 % PIFE.

B7: C_f/C_r (no BamHI site) (dsDNA)
DNA 1: CACAACGACCACCTAGATAGAGCCAAGCAGTTTACGTACCGTCATTCCCTTCCACGTCATCGAGCTACCGTCGTC
DNA 2: GACGACGGTAGCTCGATGACGTGGAAGGGAATGACGGTACGTAAACTGCTTGGCTCTATCTAGGTGGTCGTTGTG
Regarding B7, the binding result in data set [5] is “no binding”.

B8: HP (stem-loop) (structured_DNA)
DNA: CAGCGCTCGGTTTTTTTTTTTTTTTTTTTTCCGAGCGCTG
For B8, in data set [3] (hairpin), the equilibrium dissociation constant (Kd) came out at 640 ± 100 nM.

B9: B-GC competitor (substitutions outside site) (dsDNA)
DNA 1: CACAACGCCGGATCCGGCCTAGAT
DNA 2: ATCTAGGCCGGATCCGGCGTTGTG
As for B9, in data set [6], the binding result is listed as “binds”.

B10: B-GC* competitor (one base changed in BamHI site) (dsDNA)
DNA 1: CACAACGCCTGATCCGGCCTAGAT
DNA 2: ATCTAGGCCGGATCAGGCGTTGTG
For the molecule B10, the binding result in data set [6] is listed as “no binding”.

B11: Btn_11_f/Cy3_11_r (dsDNA)
DNA 1: AGATAGAGCCA
DNA 2: TGGCTCTATCT
For B11, the binding signal in data set [1] came out at 7 % PIFE.

B12: Btn_13_f/Cy3_13_r (dsDNA)
DNA 1: CTAGATAGAGCCA
DNA 2: TGGCTCTATCTAG
Consider B12, for which, in data set [1], the binding signal is roughly 50 % PIFE.

B13: Btn_25BamHI1_f/Cy3_25BamHI1_r (dsDNA)
DNA 1: CACAACGACCACCTAGATGGATCCA
DNA 2: TGGATCCATCTAGGTGGTCGTTGTG
On to B13, for which, in data set [5], the binding result is on record as “binds”.

B14: scr competitor (no BamHI site) (dsDNA)
DNA 1: CCGTCCAACAGCGAGGCTGATTAAAGAATTCG
DNA 2: CGAATTCTTTAATCAGCCTCGCTGTTGGACGG
For B14, the binding result in data set [6] is on record as “no binding”.

B15: BtnT_15_Cy3_60 (internal Cy3 60 nt from free end) (dsDNA)
DNA 1: TTGCATCCTTCACAACGACCACCTAGATAGAGCCAAGCAGTTTACGTACCGTCATTCCCTTCCACGTCATCGAGC
DNA 2: GCTCGATGACGTGGAAGGGAATGACGGTACGTAAACTGCTTGGCTCTATCTAGGTGGTCGTTGTGAAGGATGCAA
modifications: internal Cy3 after nt 15 of strand 1
B15: the binding result in data set [7] was “binds”.

Values taken from article PMC5180085.
